Sequences and labels used below:
B1: SEQ ID NO 244 (designed binder, not shown: small tags and cut ends)
chain: MLPAPKNLVVSRVTEDSARLSWTAPDAAFDSFYIAYAEPRPDGEAISLQVPGSERSYDLTGLKPGTEYSVLIHGVKGGLLSSPLGAHFTT
B2: SEQ ID NO 209 (designed binder, not shown: small tags and cut ends)
chain: B1 chain with S47L, E54C, G85T, H87I
B3: SEQ ID NO 253 (designed binder, not shown: small tags and cut ends)
chain: B1 chain with S47I, Q49H, G85D, H87Y
B4: SEQ ID NO 246 (designed binder, not shown: small tags and cut ends)
chain: B1 chain with S47Q, Q49H, G85Y, H87F
B5: SEQ ID NO 256 (designed binder, not shown: small tags and cut ends)
chain: B1 chain with S47Q, Q49T, G85H, H87Y
B6: SEQ ID NO 250 (designed binder, not shown: small tags and cut ends)
chain: B1 chain with S47L, Q49R, G85Y, H87K
B7: SEQ ID NO 249 (designed binder, not shown: small tags and cut ends)
chain: B1 chain with S47V, Q49E, G85H, H87N
B8: SEQ ID NO 254 (designed binder, not shown: small tags and cut ends)
chain: B1 chain with S47L, Q49A, G85S, H87K
B9: SEQ ID NO 245 (designed binder, not shown: small tags and cut ends)
chain: B1 chain with S47A, Q49W, G85V, H87S
B10: SEQ ID NO 218 (designed binder, not shown: small tags and cut ends)
chain: B1 chain with S47H, Q49V, G85S, H87I
B11: SEQ ID NO 259 (designed binder, not shown: small tags and cut ends)
chain: B1 chain with S47Q, Q49G, G85L, H87V
B12: SEQ ID NO 265 (designed binder, not shown: small tags and cut ends)
chain: B1 chain with S47V, Q49E, G85T, H87S
B13: SEQ ID NO 262 (designed binder, not shown: small tags and cut ends)
chain: B1 chain with S47V, Q49H, G85Q, H87I
B14: SEQ ID NO 215 (designed binder, not shown: small tags and cut ends)
chain: B1 chain with S47V, Q49W, G85I, H87E
B15: SEQ ID NO 264 (designed binder, not shown: small tags and cut ends)
chain: B1 chain with S47N, Q49S, G85D, H87Y
B16: SEQ ID NO 261 (designed binder, not shown: small tags and cut ends)
chain: B1 chain with S47L, G85I, H87K
B17: SEQ ID NO 214 (designed binder, not shown: small tags and cut ends)
chain: B1 chain with S47G, G85C, H87E
B18: SEQ ID NO 219 (designed binder, not shown: small tags and cut ends)
chain: B1 chain with Q49K, G85E, H87I
B19: SEQ ID NO 207 (designed binder, not shown: small tags and cut ends)
chain: B1 chain with S47H, Q49S, G85A, H87Y
B20: SEQ ID NO 248 (designed binder, not shown: small tags and cut ends)
chain: B1 chain with S47W, Q49G, G85H, H87T
B21: SEQ ID NO 258 (designed binder, not shown: small tags and cut ends)
chain: B1 chain with S47L, Q49E, G85V, H87F
B22: SEQ ID NO 212 (designed binder, not shown: small tags and cut ends)
chain: B1 chain with S47W, Q49A, G85H, H87Q
B23: SEQ ID NO 257 (designed binder, not shown: small tags and cut ends)
chain: B1 chain with S47Q, Q49G, G85R, H87Y
B24: SEQ ID NO 247 (designed binder, not shown: small tags and cut ends)
chain: B1 chain with S47L, Q49H, G85R, H87S
B25: SEQ ID NO 206 (designed binder, not shown: small tags and cut ends)
chain: B1 chain with S47G, Q49D, G85S, H87I
B26: SEQ ID NO 252 (designed binder, not shown: small tags and cut ends)
chain: B1 chain with S47V, Q49H, G85D, H87F
B27: SEQ ID NO 211 (designed binder, not shown: small tags and cut ends)
chain: B1 chain with S47Q, Q49H, G85V, H87I
B28: SEQ ID NO 267 (designed binder, not shown: small tags and cut ends)
chain: B1 chain with S47G, Q49W, G85V, H87Y
B29: SEQ ID NO 263 (designed binder, not shown: small tags and cut ends)
chain: B1 chain with S47A, Q49V, G85A, H87N
B30: SEQ ID NO 269 (designed binder, not shown: small tags and cut ends)
chain: B1 chain with S47W, Q49D, G85D, H87Y
B31: SEQ ID NO 217 (designed binder, not shown: small tags and cut ends)
chain: B1 chain with S47I, Q49E, G85R, H87V
B32: SEQ ID NO 266 (designed binder, not shown: small tags and cut ends)
chain: B1 chain with S47R, H87S
B33: SEQ ID NO 268 (designed binder, not shown: small tags and cut ends)
chain: MLPAPKNLVVSRVTEDSARLSWTAPDAAFDSFYIAYAEPRPDGEAIYLEVPGSERSYDLTGLKPGTEYSVLIHGVKGGLLSSPLFTT
B34: SEQ ID NO 213 (designed binder, not shown: small tags and cut ends)
chain: B33 chain with Y47L, E49G
B35: SEQ ID NO 221 (designed binder, not shown: small tags and cut ends)
chain: MLPAPKNLVVSRVTEDSARLSWTAPDAAFDSFFIGYLEPQPPGEAIFLDVPGSERSYDLTGLKPGTEYNVTIQGVKGGFPSPLTAFFTT
B36: SEQ ID NO 204 (designed binder, not shown: small tags and cut ends)
chain: MLPAPKNLVVSRVTEDSARLSWTAPDAAFDSFFIGYLEPQPPGEAILLWVPGSERSYDLTGLKPGTEYNVTIQGVKGGFPSQFTT
B37: SEQ ID NO 216 (designed binder, not shown: small tags and cut ends)
chain: MLPAPKNLVVSRVTEDSARLSWTAPDAAFDSFYIAYAEPRPDGEAISLSVPGSERSYDLTGLKPGTEYSVLIHGVKGGLLSSPPKFTT
B38: SEQ ID NO 205 (designed binder, not shown: small tags and cut ends)
chain: MLPAPKNLVVSRVTEDSARLSWTAPDAAFDSFFIGYLEPQPPGEAILLGVPGSERSYDLTGLKPGTEYNVTIQGVKGGFPSMPLHPLVALFTT
B39: SEQ ID NO 270 (designed binder, not shown: small tags and cut ends)
chain: MLPAPKNLVVSRVTEDSARLSWTAPDAAFDSFAIEYCETKMCGEAIVLTVPGSERSYDLTGLKPGTEYRVPIPGVKGGTASLPLSAIFTT
B40: SEQ ID NO 243 (designed binder, not shown: small tags and cut ends)
chain: MLPAPKNLVVSRVTEDSARLSWTAPDAAFDSFFIGYLEPQPPGEAIHLAVPGSERSYDLTGLKPGTEYNVTIQGVKGGFPSVPLAAVFTT
B41: SEQ ID NO 210 (designed binder, not shown: small tags and cut ends)
chain: B40 chain with H47N, A49Q, V82F, A85S
B42: SEQ ID NO 251 (designed binder, not shown: small tags and cut ends)
chain: B40 chain with H47G, A49W, V82D, A85Q
B43: SEQ ID NO 222 (designed binder, not shown: small tags and cut ends)
chain: B40 chain with H47V, A49D, V82H, V87A
B44: SEQ ID NO 203 (designed binder, not shown: small tags and cut ends)
chain: B40 chain with H47V, A49L, V87F
B45: SEQ ID NO 208 (designed binder, not shown: small tags and cut ends)
chain: B40 chain with H47V, V82Y, A85V, V87A
B46: SEQ ID NO 255 (designed binder, not shown: small tags and cut ends)
chain: B40 chain with H47L, A49F, V82T, A85S, V87S
B47: SEQ ID NO 260 (designed binder, not shown: small tags and cut ends)
chain: B40 chain with F33Y, G35A, L37A, Q40R, P42D, A49R, V82M, A85S, V87I

Changes are numbered by the printed parent chain.

Chain of human serum albumin (human) (P02768 25-609 limits assumed): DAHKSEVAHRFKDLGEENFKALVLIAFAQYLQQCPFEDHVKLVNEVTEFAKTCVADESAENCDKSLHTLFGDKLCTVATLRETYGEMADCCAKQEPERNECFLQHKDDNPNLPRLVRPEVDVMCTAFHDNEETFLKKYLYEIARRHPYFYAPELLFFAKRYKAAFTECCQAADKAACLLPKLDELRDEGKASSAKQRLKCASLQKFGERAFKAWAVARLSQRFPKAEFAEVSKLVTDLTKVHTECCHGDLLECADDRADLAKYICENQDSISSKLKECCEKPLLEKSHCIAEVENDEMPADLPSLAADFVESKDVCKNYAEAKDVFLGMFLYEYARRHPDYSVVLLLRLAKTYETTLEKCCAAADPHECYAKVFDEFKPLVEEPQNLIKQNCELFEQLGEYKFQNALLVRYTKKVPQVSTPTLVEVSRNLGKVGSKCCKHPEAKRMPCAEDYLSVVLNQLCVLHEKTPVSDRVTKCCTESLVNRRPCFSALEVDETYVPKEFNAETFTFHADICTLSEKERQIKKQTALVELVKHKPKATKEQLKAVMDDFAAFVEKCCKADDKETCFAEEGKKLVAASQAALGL

The assay concerns the target human serum albumin (human) (UniProt P02768). Put plainly: solution ELISA screen (luminescence). For orientation: An ELISA detects its analyte on a solid surface through an enzyme-linked reagent.
For the molecule B1, the RLU was determined as 18000 RLU.

Molecule B2 returned an RLU of 17800 RLU.

B3 gave an RLU of 37700 RLU.

In turn, B4 registered an RLU of 25800 RLU.

B5 had an RLU of 76100 RLU.

In the case of B6, the RLU worked out at 48400 RLU.

B7 registered an RLU of 24100 RLU.

Turning to B8, the RLU came out at 21500 RLU.

For the molecule B9, the RLU was 18400 RLU.

In turn, B10 displayed an RLU of 14100 RLU.

B11 returned an RLU of 25400 RLU.

B12 gave an RLU of 30700 RLU.

B13: the RLU was found to be 30900 RLU.

On to B14, for which the RLU worked out at 22400 RLU.

With B15, the RLU is 24400 RLU.

Molecule B16 had an RLU of 174000 RLU.

The molecule B17 yielded an RLU of 30200 RLU.

B18 came in with an RLU of 11800 RLU.

In the case of B19, the RLU was determined as 121000 RLU.

Molecule B20 gave an RLU of 34000 RLU.

B21 had an RLU of 26500 RLU.

B22 displayed an RLU of 17400 RLU.

In turn, B23 registered an RLU of 29800 RLU.

On to B24, for which the RLU came to 19000 RLU.

In turn, B25 came in with an RLU of 14000 RLU.

B26 returned an RLU of 72800 RLU.

Take B27: the RLU worked out at 13000 RLU.

Molecule B28 had an RLU of 29800 RLU.

Regarding B29, the RLU is 23800 RLU.

With B30, the RLU amounted to 19900 RLU.

In turn, B31 came in with an RLU of 16200 RLU.

The molecule B32 displayed an RLU of 36200 RLU.

In the case of B33, the RLU was 117000 RLU.

As to B34, the RLU is 70300 RLU.

In turn, B35 gave an RLU of 59000 RLU.

B36 gave an RLU of 20000 RLU.

In turn, B37 gave an RLU of 192000 RLU.

Turning to B38, the RLU stood at 155000 RLU.

B39 displayed an RLU of 64400 RLU.

For B40, the RLU is 30900 RLU.

As to B41, the RLU worked out at 48600 RLU.

As for B42, the RLU is 26100 RLU.

As for B43, the RLU came out at 15600 RLU.

For the molecule B44, the RLU is 26000 RLU.

B45: the RLU came to 16400 RLU.

Consider B46, for which the RLU worked out at 102000 RLU.

B47: the RLU is 33400 RLU.

These data come from patent publication US20220332795A1.
